Data from paper PMC10243088.

Legend:
[1] = molecular target: ferroportin (human (endogenous in HEK 293 and iPSC-derived ECs)) (UniProt Q9NP59)
[2] = molecular target: ferroportin (human (endogenous in HEK 293 and iPSC-derived ECs)) (UniProt Q9NP59); remark: listed apart in the source
[3] = molecular target: ferroportin (human (endogenous in HEK 293 and iPSC-derived ECs)) (UniProt Q9NP59); remark: listed apart in the source

Sequence of UniProt Q9NP59 (Q9NP59 whole entry): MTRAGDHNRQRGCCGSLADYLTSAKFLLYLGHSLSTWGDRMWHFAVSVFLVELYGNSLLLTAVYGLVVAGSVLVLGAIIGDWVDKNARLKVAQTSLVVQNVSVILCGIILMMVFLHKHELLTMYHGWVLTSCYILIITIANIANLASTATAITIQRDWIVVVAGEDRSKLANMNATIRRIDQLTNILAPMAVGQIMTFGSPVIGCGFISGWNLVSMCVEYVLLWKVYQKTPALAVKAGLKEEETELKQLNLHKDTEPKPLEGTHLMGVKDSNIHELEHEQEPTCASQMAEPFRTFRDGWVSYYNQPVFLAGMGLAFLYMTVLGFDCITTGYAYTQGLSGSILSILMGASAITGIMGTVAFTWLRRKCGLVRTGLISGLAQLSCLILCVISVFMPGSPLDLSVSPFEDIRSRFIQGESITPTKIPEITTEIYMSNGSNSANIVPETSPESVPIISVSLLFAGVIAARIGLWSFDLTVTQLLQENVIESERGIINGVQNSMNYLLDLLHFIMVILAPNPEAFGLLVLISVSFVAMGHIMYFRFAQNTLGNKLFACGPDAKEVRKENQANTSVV

membrane Fpn in HEK 293 cells with 500 nM hepcidin, 5-60 min (membrane protein isolation, immunoblot), compared to holo-Tf treatment [1] [%] | Fpn protein level in iPSC-derived ECs after 8 h with increasing concentrations of holo-Tf in the basal chamber (immunoblot), from 0.1 μM [2] [%] | Fpn protein level in iPSC-derived ECs with 0.25 μM holo-Tf over time, intervals of 1 h up to 5 h (immunoblot) [3] [%] | membrane Fpn in HEK 293 cells with 0.25 μM holo-Tf, 5-60 min (membrane protein isolation, immunoblot), compared to control [1] [%] | Substance
70 | – | – | – | hepcidin (peptide)
– | 50 | 50 | 20 | holo-transferrin (iron bound transferrin) (from UniProt P02787 20-698) (natural protein)
